The results in this text go back to patent EP1012281B1.

Some results are limits rather than exact numbers.

For assay [1], the target named is human lymph node derived calcium activated potassium channel polypeptide hKCa4, transiently expresse (human). The assay can be described thus: cell-based or functional assay.
The target in assay [2] is cloned hKCa4 (SEQ ID NO:3) (human). The assay can be described thus: cell-based or functional assay.

For “kaliotoxin (from UniProt P24662 1-38) (peptide)”, the Kd for block of KCa current, whole cell patch clamp in assay [1] is > 1000 nM.
For the molecule “iberiotoxin (from UniProt P24663 1-37) (peptide)”, in assay [1], the Kd for block of KCa current, whole cell patch clamp was > 1000 nM.
Regarding “scyllatoxin (from UniProt P16341 1-31) (peptide)”, the Kd for block of KCa current, whole cell patch clamp in assay [1] is > 1000 nM.
With “apamin (from UniProt P01500 28-45) (peptide)”, the Kd for block of KCa current, whole cell patch clamp in assay [1] was > 1000 nM.
On to QFTNVSCTTSKECWSVCQRLHNTSRGKCMNKKCRCYS (modifications not checked) [charybdotoxin, P13487 23-59], for which the IC50 as peptide blocker of the channel in assay [2] lay in the range of 5 to 10 nM.
